Laboratory results as given in publication PMC11693862 (Acta Biochimica et Biophysica Sinica, 2024).

Experiments:
Assay in all cases: crystal structure
[1] = target: SARS-CoV-2 M pro G15S (SARS-CoV-2)
[2] = target: SARS-CoV-2 M pro M49I (SARS-CoV-2)
[3] = target: SARS-CoV-2 M pro Y54C (SARS-CoV-2)
[4] = target: SARS-CoV-2 M pro V186F (SARS-CoV-2)
[5] = target: SARS-CoV-2 M pro K90R (SARS-CoV-2)
[6] = target: SARS-CoV-2 M pro S46F (SARS-CoV-2)
[7] = target: SARS-CoV-2 M pro P132H (SARS-CoV-2)

Substance: SARS-CoV-2 M pro G15S (enzyme)
- stoichiometry N [1]: 2

Substance: SARS-CoV-2 M pro M49I (enzyme)
- stoichiometry N [2]: 2

Substance: SARS-CoV-2 M pro Y54C (enzyme)
- stoichiometry N [3]: 2

Substance: SARS-CoV-2 M pro V186F (enzyme)
- stoichiometry N [4]: 2

Substance: SARS-CoV-2 M pro K90R (enzyme)
- stoichiometry N [5]: 2

Substance: SARS-CoV-2 M pro S46F (enzyme)
- stoichiometry N [6]: 2

Substance: SARS-CoV-2 M pro P132H (enzyme)
- stoichiometry N [7]: 2
